This note sets out measurements from the supplement of paper PMC7125110.

± gives the standard error. For some assays here: Variants at the floor of the assay were thinned out.

B1: glmS ribozyme (parent)
chain: AUAAAAGCGCCAGAACUACAGAAAUGUAGUUGACGAGGAGGAGGUUUAUCGAAUUUUCGGCGGAUGCCUCCAAA

Details in all cases: with glucosamine-6-phosphate
The variants in data set [1] derive from B1. Briefly: kcat; higher = faster cleavage; RNA array. An outline of the steps:
(§1)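 E. coli RNA polymerase transcribed barcoded ribozyme variants in situ on sequenced MiSeq chips, which were tracked via a hybridised Cy3 probe at 37 °C. Tiles were imaged over ~14 h after glucosamine-6-phosphate (40 μM to 10 mM) in HEPES/KCl/Mg(OAc)2 buffer was flowed in. Normalised per-tile medians were fit to one- or two-exponential decays for kobs, and kcat and KM came from weighted Michaelis–Menten fits.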

Data set [2] covers variants of B1. The data set is described as follows: KM; higher = weaker cofactor use; RNA array. The procedure, abridged: as §1
The variants in data set [3] derive from B1. Briefly: self-cleavage kobs at 40 uM GlcN6P; higher = faster cleavage; RNA array. An outline of the steps:
as §1

Data set [4] covers variants of B1. Briefly: self-cleavage kobs at 160 uM GlcN6P; higher = faster cleavage; RNA array. An outline of the steps:
as §1

Variants of B1 are the subject of data set [5]. The data set is described as follows: self-cleavage kobs at 640 uM GlcN6P; higher = faster cleavage; RNA array. The procedure, abridged: as §1
Variants of B1 are the subject of data set [6]. Briefly: self-cleavage kobs at 2500 uM GlcN6P; higher = faster cleavage; RNA array. The procedure, abridged:
as §1

The variants in data set [7] derive from B1. Briefly: self-cleavage kobs at 10000 uM GlcN6P; higher = faster cleavage; RNA array. An outline of the steps:
as §1

For the variant AUAAAAGCGCCAGAGCUACAGAAAUGUAGUUGACGAGGAGGAGGUUCAUCGAAUUUUCGGCGGAUGCCUCCAAA [A15G U47C], the kcat in the data set with glucosamine-6-phosphate [1] was determined as 0.0057 ± 0.00076 s⁻¹. Further, the KM with glucosamine-6-phosphate [2] came out at 1660 ± 350 µM. Moreover, in the data set with glucosamine-6-phosphate [3], the “self-cleavage kobs at 40 uM GlcN6P” value turned out to be 0.000151 ± 3.2e-05 s⁻¹. Moreover, the “self-cleavage kobs at 160 uM GlcN6P” value in the data set with glucosamine-6-phosphate [4] is 0.000348 ± 0.00016 s⁻¹. Besides, the “self-cleavage kobs at 640 uM GlcN6P” value with glucosamine-6-phosphate [5] is 0.00164 ± 0.0005 s⁻¹. Besides, in the data set with glucosamine-6-phosphate [6], the “self-cleavage kobs at 2500 uM GlcN6P” value stood at 0.00388 ± 0.00099 s⁻¹. For the same variant, the “self-cleavage kobs at 10000 uM GlcN6P” value with glucosamine-6-phosphate [7] is 0.00476 ± 0.00083 s⁻¹.
With AUAAAAGCGCCAGAACUACAGAAAUGUAGUUGACGAGGAGGAGGUUUAUCGAGUUUACGGCGGAUGCCUCCAAA [A53G U57A], the kcat with glucosamine-6-phosphate [1] came out at 0.000309 ± 2.3e-05 s⁻¹. For the same variant, the Michaelis constant (KM) in the data set with glucosamine-6-phosphate [2] is 3400 ± 490 µM. Moreover, in the data set with glucosamine-6-phosphate [5], the “self-cleavage kobs at 640 uM GlcN6P” value amounted to 4.7e-05 ± 1.1e-05 s⁻¹. Also, in the data set with glucosamine-6-phosphate [6], the “self-cleavage kobs at 2500 uM GlcN6P” value came out at 0.000134 ± 2.3e-05 s⁻¹. For the same variant, in the data set with glucosamine-6-phosphate [7], the “self-cleavage kobs at 10000 uM GlcN6P” value was 0.00023 ± 2.9e-05 s⁻¹.
For AUAAAAGCGCCAGAACUACAGAAAUGUAGUUGACGAGGAGCAGGUUUAUCGGAUUUUCGGCGGAUGCCUCCAAA [G41C A52G], in the data set with glucosamine-6-phosphate [1], the kcat is 1.14e-05 ± 2.5e-06 s⁻¹.
As to AUAAAAGCGCCAGAACUACAGAAAUGUAGUUGACGAGGAGGAGGUUUAUCGAAUUUUCAGCGGAUGCGUCCAAA [G59A C68G], in the data set with glucosamine-6-phosphate [1], the kcat worked out at 1.72e-05 ± 2.3e-06 s⁻¹.
For the variant AUAAAAGCGCCAGAACUACAGAAAUGUAGUAGACGAGGCGGAGGUUUAUCGAAUUUUCGGCGGAUGCCUCCAAA [U31A A39C], the kcat in the data set with glucosamine-6-phosphate [1] turned out to be 0.00192 ± 0.00067 s⁻¹. Further, in the data set with glucosamine-6-phosphate [2], the Michaelis constant (KM) was found to be 2120 ± 1000 µM. Further, in the data set with glucosamine-6-phosphate [3], the “self-cleavage kobs at 40 uM GlcN6P” value was found to be 5.43e-05 ± 7.8e-06 s⁻¹. For the same variant, the “self-cleavage kobs at 160 uM GlcN6P” value in the data set with glucosamine-6-phosphate [4] stood at 0.000105 ± 1.4e-05 s⁻¹. Further, in the data set with glucosamine-6-phosphate [5], the “self-cleavage kobs at 640 uM GlcN6P” value was 0.000525 ± 4.9e-05 s⁻¹. In addition, the “self-cleavage kobs at 2500 uM GlcN6P” value with glucosamine-6-phosphate [6] worked out at 0.000973 ± 0.00011 s⁻¹. Also, the “self-cleavage kobs at 10000 uM GlcN6P” value in the data set with glucosamine-6-phosphate [7] is 0.00166 ± 0.0003 s⁻¹.
As to AUAAAAGCGCCAGAACUACAGAAAUGUAGUUGACGAGGGGGUGGUUUAUCGAAUUUUCGGCGGAUGCCUCCAAA [A39G A42U], the kcat with glucosamine-6-phosphate [1] is 0.000818 ± 0.00016 s⁻¹. The KM in the data set with glucosamine-6-phosphate [2] is 1510 ± 540 µM. The “self-cleavage kobs at 40 uM GlcN6P” value in the data set with glucosamine-6-phosphate [3] turned out to be 4.94e-05 ± 1.9e-05 s⁻¹. Besides, the “self-cleavage kobs at 160 uM GlcN6P” value in the data set with glucosamine-6-phosphate [4] was determined as 7.49e-05 ± 2.2e-05 s⁻¹. Further, the “self-cleavage kobs at 640 uM GlcN6P” value with glucosamine-6-phosphate [5] worked out at 0.00023 ± 5.4e-05 s⁻¹. In addition, the “self-cleavage kobs at 2500 uM GlcN6P” value with glucosamine-6-phosphate [6] amounted to 0.00045 ± 0.00014 s⁻¹. In addition, the “self-cleavage kobs at 10000 uM GlcN6P” value in the data set with glucosamine-6-phosphate [7] was determined as 0.000751 ± 0.00014 s⁻¹.
For the variant AUAAAAGCGCUAGAACUACAGAAAUGUAGCUGACGAGGAGGAGGUUUAUCGAAUUUUCGGCGGAUGCCUCCAAA [C11U U30C], the kcat in the data set with glucosamine-6-phosphate [1] came out at 0.000527 ± 0.00014 s⁻¹. Besides, the KM with glucosamine-6-phosphate [2] turned out to be 2780 ± 1100 µM. Further, in the data set with glucosamine-6-phosphate [4], the “self-cleavage kobs at 160 uM GlcN6P” value worked out at 5.41e-05 ± 2.1e-05 s⁻¹. For the same variant, in the data set with glucosamine-6-phosphate [5], the “self-cleavage kobs at 640 uM GlcN6P” value turned out to be 9.85e-05 ± 1.3e-05 s⁻¹. For the same variant, in the data set with glucosamine-6-phosphate [6], the “self-cleavage kobs at 2500 uM GlcN6P” value came out at 0.000213 ± 4.9e-05 s⁻¹. For the same variant, in the data set with glucosamine-6-phosphate [7], the “self-cleavage kobs at 10000 uM GlcN6P” value was determined as 0.000465 ± 9.9e-05 s⁻¹.
On to AUAAAUGCGCCAGAACUACAGAAAUGUAGUUGACGAGGGGGAGGUUUAUCGAAUUUUCGGCGGAUGCCUCCAAA [A6U A39G], for which the catalytic constant (kcat) in the data set with glucosamine-6-phosphate [1] was 0.000267 ± 2.8e-05 s⁻¹. Further, the KM with glucosamine-6-phosphate [2] turned out to be 5030 ± 1100 µM. In addition, the “self-cleavage kobs at 2500 uM GlcN6P” value in the data set with glucosamine-6-phosphate [6] turned out to be 9.44e-05 ± 1.8e-05 s⁻¹. In addition, the “self-cleavage kobs at 10000 uM GlcN6P” value in the data set with glucosamine-6-phosphate [7] was 0.000175 ± 2.6e-05 s⁻¹.

As usually defined, the kcat is the maximal rate divided by the concentration of active sites. One may read the KM as the substrate concentration at which the rate is half of its maximum.
